Experimental data taken from patent US20260035452A1, “NOVEL INTERLEUKIN-17A (IL-17A)-DERIVED PEPTIDE AND NEUTRALIZING ANTIBODY (AB17-IPL-1)” (THE UNIVERSITY OF BIRMINGHAM, priority 2022, published 2026).

Target: IL-17 (used on human synovial fibroblasts, Example 9)
Experiment: cell-based or functional assay

Substance: MAB421 (antibody)
- IL-6 production by human RA fibroblasts stimulated with IL-17 (10 ng/ml) and TNF-α (100 U/ml); 3662.05 µg/ml without antibody; antibody at 10 µg/ml: 2320 µg/mL
